Results taken from paper doi:10.1101/2025.11.17.688911, “Structure and mechanism of microtubule stabilization and motor regulation by MAP9” (bioRxiv, 2025).

Columns and labels:
[1] = biological target: T1, surface-immobilized biotinylated microtubules (pig, UniProt Q2XVP4 1-451; Q767L7 1-444, biotin (site not stated) | biotin (site not stated)); assay: cell-based or functional assay
[2] = biological target: T1, surface-immobilized biotinylated …; assay: TIRF microscopy, fluorescence intensity of GFP-tagged MAP on microtubules; biotinylated MTs held on a streptavidin-coated coverslip; MAP titrated in BRB80 (80 mM PIPES pH 6.8, 1 mM EGTA, 2 mM MgCl2; about 100 mM salt) with 1 mg/mL casein, 0.5% pluronic acid, no motors or ATP; intensity fit to the Langmuir isotherm; details: both partners purified

B1: full-length (FL) human MAP9 (GFP::Human MAP9::strepII) (natural protein, UniProt Q49MG5 1-647, looked up)
chain: MSDEVFSTTLAYTKSPKVTKRTTFQDELIRAITARSARQRSSEYSDDFDSDEIVSLGDFSDTSADENSVNKKMNDFHISDDEEKNPSKLLFLKTNKSNGNITKDEPVCAIKNEEEMAPDGCEDIVVKSFSESQNKDEEFEKDKIKMKPKPRILSIKSTSSAENNSLDTDDHFKPSPRPRSMLKKKSHMEEKDGLEDKETALSEELELHSAPSSLPTPNGIQLEAEKKAFSENLDPEDSCLTSLASSSLKQILGDSFSPGSEGNASGKDPNEEITENHNSLKSDENKENSFSADHVTTAVEKSKESQVTADDLEEEKAKAELIMDDDRTVDPLLSKSQSILISTSATASSKKTIEDRNIKNKKSTNNRASSASARLMTSEFLKKSSSKRRTPSTTTSSHYLGTLKVLDQKPSQKQSIEPDRADNIRAAVYQEWLEKKNVYLHEMHRIKRIESENLRIQNEQKKAAKREEALASFEAWKAMKEKEAKKIAAKKRLEEKNKKKTEEENAARKGEALQAFEKWKEKKMEYLKEKNRKEREYERAKKQKEEETVAEKKKDNLTAVEKWNEKKEAFFKQKEKEKINEKRKEELKRAEKKDKDKQAINEYEKWLENKEKQERIERKQKKRHSFLESEALPPWSPPSRTVFAKVF
notes: human MAP9, full length; also called FL MAP9; ASAP; source: E. coli Rosetta (DE3), purified (Strep-Tactin XT; for structural studies also heparin HP and Superdex 200); not shown: GFP, N-terminal, kept
depolymerization rate of MTs after removing free tubulin and GTP, with MAP9 kept in the chamber [1]: 6 fold | Kd [2]: 61 nM
